# According to publication PMC8792006, “Engineering the stambomycin modular polyketide synthase yields 37-membered mini-stambomycins” (Nature Communications, 2022):
# Where a chain is given by its changes, count along the chain named.
# B1: ^CDD4 wt (C-terminal docking domain of stambomycin PKS subunit Pks4) (domain or fragment)
# chain: GPGSYADRLLAELARLEADLTRMDGDEEDRTRLAARLRALADRCQGERTRRDDNLDAASIEEVFDLLDTEFETP
# B2: ^CDD4 SDM (C-terminal docking domain of Pks4 with 3 specificity-code residues mutated to match ^CDD8) (domain or fragment)
# chain: B1 chain with E61D, L67I, F71L
# B3: ^CDD4 helix swap (C-terminal docking domain of Pks4 with its docking α-helix exchanged for that of ^CDD8) (domain or fragment)
# chain: GPGSYADRLLAELARLEADLTRMDGDEEDRTRLAARLRALADRCQGERTRRDDNLDAADDDNLFAFIDNELGA
# B4: ^CDD8 (C-terminal docking domain of stambomycin PKS subunit Pks8) (domain or fragment)
# chain: GPGSYGPAALLADLDRLDAALAGTGPGDETRSRVISRLHALLARHDTADGSGLVTAAGNLDAADDDNLFAFIDNELGA
# Key:
# [1] = target: T1, ^NDD5 (N-terminal docking domain of stambomycin PKS subunit Pks5) (Streptomyces ambofaciens ATCC23877); test: ITC; ^CDD (700 μM) in the syringe titrated into the ^NDD in the cell (^NDD5 70 μM; ^NDD9 Met 80 μM; ^NDD9 Val 120 μM); 20 °C; buffer GF (20 mM HEPES, 100 mM NaCl, 0.5 mM TCEP, pH 7.5); one-site binding model; two independent titrations; settings: both partners purified
# T1 chain: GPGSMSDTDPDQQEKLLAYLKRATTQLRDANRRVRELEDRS
# [2] = target: the molecule itself; test: SEC-MALS; Superdex75 10/300, 20 °C, 0.5 mL min^-1, 20 mM HEPES, 100 mM NaCl, 0.5 mM TCEP, pH 7.5; each docking domain alone
# [3] = target: T2, ^NDD9 Val (N-terminal docking domain of stambomycin PKS subunit Pks9, version with the Val start site) (Streptomyces ambofaciens ATCC23877); test: ITC; ^CDD (700 μM) in the syringe titrated into the ^NDD in the cell (^NDD5 70 μM; ^NDD9 Met 80 μM; ^NDD9 Val 120 μM); 20 °C; buffer GF (20 mM HEPES, 100 mM NaCl, 0.5 mM TCEP, pH 7.5); one-site binding model; two independent titrations; settings: both partners purified
# T2 chain: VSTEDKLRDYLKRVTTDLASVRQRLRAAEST
# [4] = target: T3, ^NDD9 Met (N-terminal docking domain of stambomycin PKS subunit Pks9, version with the Met start site) (Streptomyces ambofaciens ATCC23877); test: as above; settings: both partners purified
# T3 chain: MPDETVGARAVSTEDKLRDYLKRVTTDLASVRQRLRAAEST
Binder,Kd [1],stoichiometry N [1],stoichiometry N [2],Kd [3],Kd [4],stoichiometry N [4],stoichiometry N [3]
B1,14.5 ± 0.9 µM,2 monomeric ^NDDs per homodimeric ^CDD,2,,,,
B2,,,2,,,,
B3,,,2,21 ± 0.3 µM,,,
B4,,,2,22 ± 1 µM,33 ± 2 µM,2 monomeric ^NDDs per homodimeric ^CDD,2 monomeric ^NDDs per homodimeric ^CDD
